Assay results from article PMC4786772, “Manipulation of prenylation reactions by structure-based engineering of bacterial indolactam prenyltransferases” (Nature Communications, 2016).

Legend:
Assay in all cases: purified protein
Conditions in all cases: 150 μM (−)-indolactam V, 42 °C, 5 min, Tris-HCl pH 7.0, 150 mM NaCl
[1] = system: CC(C)=CCC/C(C)=C/COP(=O)(O)OP(=O)(O)O
[2] = system: CC(C)=CCC/C(C)=C/CC/C(C)=C/CO[P@@](=O)(O)OP(=O)(O)O
[3] = system: CC(C)=CCOP(=O)(O)OP(=O)(O)O

Substance	Km [1]	kcat [1]	kcat/Km [1]	Km [2]	kcat [2]	kcat/Km [2]	Km [3]	kcat [3]	kcat/Km [3]
MpnD (Marinactinospora thermotolerans)	26.0 ± 4.9 µM	0.0433 ± 0.00333 s⁻¹	1700 M⁻¹ s⁻¹	95.5 ± 17.1 µM	0.0867 ± 0.00833 s⁻¹	900 M⁻¹ s⁻¹	4.8 ± 1.0 µM	0.882 ± 0.0433 s⁻¹	183000 M⁻¹ s⁻¹
MpnD (Marinactinospora thermotolerans; M159A)	9.1 ± 1.2 µM	0.0717 ± 0.00333 s⁻¹	7900 M⁻¹ s⁻¹	48.7 ± 14.6 µM	0.167 ± 0.015 s⁻¹	3400 M⁻¹ s⁻¹	24.2 ± 4.2 µM	0.505 ± 0.0333 s⁻¹	20900 M⁻¹ s⁻¹
MpnD (Marinactinospora thermotolerans; Y80W)	9.7 ± 1.1 µM	0.09 ± 0.00167 s⁻¹	9300 M⁻¹ s⁻¹	–	–	–	15.3 ± 2.5 µM	0.118 ± 0.005 s⁻¹	7700 M⁻¹ s⁻¹
TleC (Streptomyces blastmyceticus)	9.5 ± 3.3 µM	0.25 ± 0.025 s⁻¹	26400 M⁻¹ s⁻¹	–	–	–	21.7 ± 4.3 µM	0.025 ± 0.00167 s⁻¹	1100 M⁻¹ s⁻¹
TleC (Streptomyces blastmyceticus; A173M)	–	–	–	–	–	–	24.6 ± 3.0 µM	0.065 ± 0.00167 s⁻¹	2600 M⁻¹ s⁻¹
TleC (Streptomyces blastmyceticus; A173M/F170W/W97Y)	–	–	–	–	–	–	46.6 ± 8.2 µM	0.0433 ± 0.00333 s⁻¹	900 M⁻¹ s⁻¹
TleC (Streptomyces blastmyceticus; A173M/W97Y)	–	–	–	–	–	–	41.2 ± 5.6 µM	0.0333 ± 0.00167 s⁻¹	800 M⁻¹ s⁻¹
TleC (Streptomyces blastmyceticus; W97Y)	7.7 ± 1.0 µM	0.168 ± 0.00667 s⁻¹	21800 M⁻¹ s⁻¹	–	–	–	11.3 ± 1.6 µM	0.402 ± 0.0133 s⁻¹	35500 M⁻¹ s⁻¹
